# Measured values published in the RNAGym collection of RNA variant scans (doi:10.7554/elife.90254).
# B1: LINE1-mini (parent)
# chain: GGCAGAGCUCAACACAGCGUGGCAAAGUGGCUGUGGCUAGACUGCC
# Variants of: B1
# Assay: self-cleavage, relative activity (ratio to wild type); higher = more cleavage; in vitro, sequencing; the parent is a self-cleaving ribozyme
row,Variant,self-cleavage
1,A24C U34A,0.07
2,G7A C31U,0.08
3,A16U U38G,0.02
4,C13A G40A,0.09
5,G1U C42U,0.06
6,G1U C42A,0.07
7,G1C A6G,0.02
8,G36A A39C,0.27
9,G27C G33C,0.04
10,G2C C46G,0.16
11,A24G G35U,0.13
12,A4U A39C,0.27
13,C31A U32C,0.07
14,G2A G29U,0.9
15,A4U,0.29
16,A6G U9A,0.12
17,G21A G40C,0.22
18,U9C G36A,0.09
19,U20A U34C,0.27
20,C15U G22A,1.21
21,U20C G36U,0.15
22,A4G A11C,0.04
23,U9A G33A,0.11
24,G21A A39G,0.14

row,Variant,self-cleavage
1,A14C G21A,0.17
2,U20A U28C,0.67
3,C13G A25U,0.44
4,C18G A26G,0.22
5,C15U G27A,1.41
6,C3U A12U,0.35
7,C15A G19U,0.09
8,A12U A26C,0.16
9,C18G U28G,0.22
10,G21U G44A,0.53
11,U32G U43G,0.04
12,G29A G30U,1.41
13,C8U C10U,0.08
14,C15U U20G,0.49
15,G5A C13U,0.15
16,A4G U32C,0.15
17,U20A A41C,0.05
18,A6G C15U,0.17
19,G5U C46G,0.13
20,C13U C15G,0.08
21,A6U C31U,0.31
22,A16U G40U,0.07
23,C15A C31A,0.05
24,C37A C42U,0.16

row,Variant,self-cleavage
1,A41U C42A,0.09
2,A26C U34A,0.1
3,G29C C46U,0.6
4,G1A C37G,0.04
5,C8A C46U,0.43
6,C3A U20A,0.38
7,G17C G29A,0.12
8,A16G U20A,0.16
9,C10A G35C,0.02
10,G2U U32A,0.03
11,A4C C8A,0.32
12,G27A C42G,0.05
13,A11U C13G,0.03
14,U20A C31A,0.09
15,G7U C31U,0.1
16,U9A G40U,0.1
17,A16C C37U,0.1
18,G5A G30U,0.19
19,C37G A39U,0.08
20,G7U G17U,0.12
21,G2U C10U,0.03
22,U9C A11C,0.02
23,G2U G19C,0.03
24,A12G U38C,0.04

row,Variant,self-cleavage
1,C15G G30A,0.07
2,A14C A26G,0.06
3,G36A G44C,0.15
4,A24G G33A,0.07
5,U20C A25U,1.02
6,A25G G27A,0.37
7,G17C U32C,0.14
8,G21A G30C,0.61
9,C18U A41C,0.05
10,C15G G19A,0.07
11,A16C G17U,0.08
12,U20G G44U,0.23
13,C3A C8A,0.85
14,G19U G36A,0.1
15,A39C A41U,0.4
16,A24G G30U,2.49
17,G35C U38G,0.02
18,G2U G30A,0.09
19,C23A A24U,1
20,A16U U20A,0.06
21,U34C G44U,0.09
22,G27C C46U,1.09
23,A39C C42G,0.06
24,G17A G33C,0.04

row,Variant,self-cleavage
1,G7A U43C,0.25
2,U28A G33A,0.06
3,A14U A41C,0.06
4,C15U G35C,0.14
5,C42U U43C,0.11
6,G29U G35U,0.14
7,G29U G35C,0.08
8,A41C,0.06
9,U32C C37G,0.06
10,U28A G44U,0.33
11,G36U C45G,0.12
12,G2C G22C,0.05
13,C23A C42U,0.52
14,G30U G33C,0.11
15,U20C U28G,0.93
16,A16C G22A,0.1
17,G2U U9G,0.06
18,G22A G29C,0.21
19,A25C U34A,0.12
20,G7A U32C,0.17
21,G1C G21U,0.17
22,A6U C13A,0.2
23,G1C C10G,0.03
24,G5A G7C,0.23

row,Variant,self-cleavage
1,A12G A25G,0.03
2,A26G G33A,0.09
3,C15U C23G,0.81
4,A12C G29U,0.02
5,U9C G33U,0.03
6,C10U A16G,0.19
7,G2C A14U,0.08
8,G21A G35A,0.15
9,G2U G22U,0.11
10,A12U U38C,0.14
11,U28C G44A,0.67
12,U28C G44C,0.27
13,G5C C46U,0.06
14,A24U G29U,1.84
15,C23U C46G,1.58
16,C37G U43G,0.05
17,A16C G29U,0.55
18,A4U A25C,0.08
19,G5A C45U,0.12
20,G21A C45U,2.04
21,C31U G44C,0.07
22,A4G A39C,0.06
23,C3G A26U,0.56
24,A25U U38C,0.31

row,Variant,self-cleavage
1,A16U A24U,0.11
2,C3A G21A,1.23
3,C3A G21C,0.23
4,U9C G22A,0.04
5,G5A U34A,0.07
6,A11C U38A,0.02
7,G35A C42A,0.06
8,C10A U32A,0.02
9,G29U U32A,0.34
10,A11G G36A,0.02
11,U28A G30C,0.62
12,A4C A41G,0.07
13,A26C A39U,0.43
14,A12C U43G,0.01
15,C23G U38G,0.02
16,C23A A25G,0.49
17,G2U G7U,0.05
18,U34A G40A,0.09
19,C10A G27A,0.06
20,C18G G44U,0.05
21,G2A G17U,0.19
22,G36U U38G,0.02
23,A12G U34C,0.05
